Measured values taken from PMC4812828 (Nature structural & molecular biology, 2016).

Molecular target: T1, Mcm5 (S. cerevisiae, UniProt P29496 1-775)
T1 sequence: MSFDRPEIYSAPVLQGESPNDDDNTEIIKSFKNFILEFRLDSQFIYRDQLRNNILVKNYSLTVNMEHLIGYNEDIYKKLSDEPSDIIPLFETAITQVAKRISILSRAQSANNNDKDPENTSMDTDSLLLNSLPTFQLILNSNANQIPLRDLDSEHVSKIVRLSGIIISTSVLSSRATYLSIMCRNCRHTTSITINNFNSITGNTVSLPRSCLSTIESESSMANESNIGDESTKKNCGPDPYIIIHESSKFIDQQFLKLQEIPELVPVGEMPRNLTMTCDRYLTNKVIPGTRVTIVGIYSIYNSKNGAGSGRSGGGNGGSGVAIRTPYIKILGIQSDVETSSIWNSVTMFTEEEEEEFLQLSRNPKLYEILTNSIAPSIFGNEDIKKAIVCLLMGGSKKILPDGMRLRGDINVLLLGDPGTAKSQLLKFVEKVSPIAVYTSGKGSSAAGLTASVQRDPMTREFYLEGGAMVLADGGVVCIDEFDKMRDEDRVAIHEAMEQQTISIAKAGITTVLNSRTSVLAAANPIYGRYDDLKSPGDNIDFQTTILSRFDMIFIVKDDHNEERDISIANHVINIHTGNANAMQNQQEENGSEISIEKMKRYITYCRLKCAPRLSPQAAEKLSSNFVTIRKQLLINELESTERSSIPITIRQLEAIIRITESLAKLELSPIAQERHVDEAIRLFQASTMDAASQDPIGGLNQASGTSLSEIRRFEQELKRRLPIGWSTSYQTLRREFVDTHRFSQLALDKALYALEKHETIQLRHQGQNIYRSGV
Assay: cryo-EM structure

B1: Psf3 (natural protein)
chain: MGYYDIDDVLADGTEFPCKFQYDIPGLGYLENNPGRPITKNTKLSLPLWLARILAIVGGDEALVDEEPVPFVELLPPDMFSTKVMNAIKTDPVALDLHSINSHFFSLAIKWIMLFSEKELANVVSELLLQRAQELNHHASSLSIDLNADSTGKNSANTNIATSTFLLKLEEMEKEIYKKSHESYKDTKRWMFKK
  binding result: binds
